The record followed here is patent US20250352667A1.

In assay [1] the target is KEAP1 (wild-type full-length), His-tagged (human) (UniProt Q14145). Description: AlphaScreen; FLAG-NRF2 wt isoform 1 614.4 nM, His-KEAP1 150 nM; Rep 2; positive control for Q75R. In general terms: In Alpha technology, singlet oxygen from a donor bead excites a nearby acceptor bead.
Assay [2] has the same target. Description: AlphaScreen; FLAG-NRF2 wt isoform 1 76.8 nM, His-KEAP1 150 nM; Rep 1; positive control for Q75R.
Assay [3] has the same target. Put plainly: AlphaScreen; 2.4 nM FLAG-NRF2, 150 nM His-KEAP1; Rep 3; control for I86V.
Assay [4] shares this target. Put plainly: AlphaScreen; 9.6 nM FLAG-NRF2, 150 nM His-KEAP1; signal against NRF2 only; control for I86V.
Assay [5] has the same target. Description: AlphaScreen; 1228.8 nM FLAG-NRF2, 150 nM His-KEAP1; Rep 1; control for I86V.
Assay [6] has the same target. Put plainly: AlphaScreen; 2.4 nM FLAG-NRF2, 150 nM His-KEAP1; Rep 2; control for I86V.
Assay [7] shares this target. Description: AlphaScreen; 307.2 nM FLAG-NRF2, 150 nM His-KEAP1; signal against NRF2 only; control for I28V.
For assay [8] the target is unchanged. Put plainly: AlphaScreen; FLAG-NRF2 wt isoform 1 1228.8 nM, His-KEAP1 150 nM; Rep 1; positive control for Q75R.
Assay [9] shares this target. Put plainly: AlphaScreen; 9.6 nM FLAG-NRF2, 150 nM His-KEAP1; Rep 3; control for I86V.
The target is the same in assay [10]. Put plainly: AlphaScreen; 307.2 nM FLAG-NRF2, 150 nM His-KEAP1; Rep 1; control for I86V.
The target is the same in assay [11]. Description: AlphaScreen; 19.2 nM FLAG-NRF2, 150 nM His-KEAP1; Rep 2; control for I86V.
For assay [12] the target is unchanged. Put plainly: AlphaScreen; FLAG-NRF2 wt isoform 1 9.6 nM, His-KEAP1 150 nM; Rep 2; positive control for Q75R.
Assay [13] shares this target. Put plainly: AlphaScreen; 153.6 nM FLAG-NRF2, 150 nM His-KEAP1; Rep 1; control for I86V.
Assay [14] has the same target. Description: AlphaScreen; 19.2 nM FLAG-NRF2, 150 nM His-KEAP1; signal against NRF2 only; control for I86V.
Assay [15] shares this target. Put plainly: AlphaScreen; average ± standard deviation over three NRF2 concentrations, KEAP1 150 nM; relative to wild-type NRF2 isoform 1.
The target is the same in assay [16]. Description: AlphaScreen; FLAG-NRF2 Q75R 76.8 nM, His-KEAP1 150 nM; Rep 1.
Assay [17] shares this target. Put plainly: AlphaScreen, all variants on one plate; upper condition (38.4 nM NRF2), KEAP1 150 nM; relative to NRF2 (WT) isoform 1.
Assay [18] shares this target. Description: AlphaScreen, all variants on one plate; optimal condition (19.2 nM NRF2), KEAP1 150 nM; relative to NRF2 (WT) isoform 1.
The target is the same in assay [19]. Put plainly: AlphaScreen, all variants on one plate; average of three conditions ± standard deviation, KEAP1 150 nM; relative to NRF2 (WT) isoform 1.
Assay [20] has the same target. Description: AlphaScreen, all variants on one plate; lower condition (9.6 nM NRF2), KEAP1 150 nM; relative to NRF2 (WT) isoform 1.
The target is the same in assay [21]. Put plainly: AlphaScreen; FLAG-NRF2 I86V 307.2 nM, His-KEAP1 150 nM; Rep 2.
Assay [22] has the same target. Put plainly: AlphaScreen; NRF2 I86V 19.2 nM, KEAP1 150 nM; relative to wild-type NRF2 isoform 1 (100 %).
Assay [23] shares this target. Description: AlphaScreen; FLAG-NRF2 I86V 2.4 nM, His-KEAP1 150 nM; Rep 2.
Assay [24] has the same target. Put plainly: AlphaScreen; 614.4 nM FLAG-NRF2, 150 nM His-KEAP1; Rep 1.
The target is the same in assay [25]. Description: AlphaScreen; over 9.6, 19.2 and 38.4 nM NRF2; 150 nM His-KEAP1.
Assay [26] has the same target. Put plainly: AlphaScreen; 38.4 nM FLAG-NRF2, 150 nM His-KEAP1; Rep 1.
For assay [27] the target is unchanged. Description: AlphaScreen; 4.8 nM FLAG-NRF2, 150 nM His-KEAP1; Rep 1.

Substitutions are numbered along the chain they refer to. Names and notes keep the numbering of the source.

Chain of KEAP1 (wild-type full-length), His-tagged (human) (Q14145 2-624 limits assumed): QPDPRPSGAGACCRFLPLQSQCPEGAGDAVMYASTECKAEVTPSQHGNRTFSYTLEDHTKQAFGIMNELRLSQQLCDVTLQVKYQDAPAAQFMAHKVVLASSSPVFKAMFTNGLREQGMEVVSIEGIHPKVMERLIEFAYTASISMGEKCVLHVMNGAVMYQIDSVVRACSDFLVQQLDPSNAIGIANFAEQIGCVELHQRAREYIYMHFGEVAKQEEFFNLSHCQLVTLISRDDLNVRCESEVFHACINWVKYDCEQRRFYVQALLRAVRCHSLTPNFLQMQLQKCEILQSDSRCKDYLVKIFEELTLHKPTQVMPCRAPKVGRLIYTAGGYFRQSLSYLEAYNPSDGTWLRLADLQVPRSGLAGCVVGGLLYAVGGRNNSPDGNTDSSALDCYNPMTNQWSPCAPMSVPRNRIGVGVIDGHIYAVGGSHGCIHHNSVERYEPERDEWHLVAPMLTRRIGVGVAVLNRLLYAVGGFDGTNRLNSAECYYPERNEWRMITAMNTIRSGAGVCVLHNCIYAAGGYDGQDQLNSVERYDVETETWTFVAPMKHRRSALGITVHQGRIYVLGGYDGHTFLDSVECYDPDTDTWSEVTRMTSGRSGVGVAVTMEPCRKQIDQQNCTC

B1: NRF2 isoform 1 (wild-type full-length), FLAG-tagged (protein)
chain: MMDLELPPPGLPSQQDMDLIDILWRQDIDLGVSREVFDFSQRRKEYELEKQKKLEKERQEQLQKEQEKAFFAQLQLDEETGEFLPIQPAQHIQSETSGSANYSQVAHIPKSDALYFDDCMQLLAQTFPFVDDNEVSSATFQSLVPDIPGHIESPVFIATNQAQSPETSVAQVAPVDLDGMQQDIEQVWEELLSIPELQCLNIENDKLVETTMVPSPEAKLTEVDNYHFYSSIPSMEKEVGNCSPHFLNAFEDSFSSILSTEDPNQLTVNSLNSDATVNTDFGDEFYSAFIAEPSISNSMPSPATLSHSLSELLNGPIDVSDLSLCKAFNQNHPESTAEFNDSDSGISLNTSPSVASPEHSVESSSYGDTLLGLSDSEVEELDSAPGSVKQNGPKTPVHSSGDMVQPLSPSQGQSTHVHDAQCENTPEKELPVSPGHRKTPFTKDKHSSRLEAHLTRDELRAKALHIPFPVEKIINLPVVDFNEMMSKEQFNEAQLALIRDIRRRGKNKVAAQNCRKRKLENIVELEQDLDHLKDEKEKLLKEKGENDKSLHLLKKQLSTLYLEVFSMLRDEDGKPYSPSEYSLQQTRDGNVFLVPKSKKPDVKKN
For the molecule B1, the A-counts (NRF2 plus KEAP1) in assay [1] worked out at 1710 A-counts; in [2] it was 1490 A-counts; in [8], 1490 A-counts; in assay [12] it was 900 A-counts. The A-counts was 1100 A-counts in assay [3]; 2930 A-counts in assay [5]; 959 A-counts in assay [6]; 2410 A-counts in [9]; 2640 A-counts in assay [10]; 3270 A-counts in assay [11]. The A-counts in assay [13] was determined as 3060 A-counts. The S/N in assay [4] stood at 3.6; in assay [7], 1.3; in assay [14], 4.1.

B2: NRF2 isoform 1 (Q75R full-length), FLAG-tagged (protein)
chain: B1 chain with Q75R
As for B2, in [15], the Reported Value (reduction in binding) came to 30.2%. In addition, the A-counts (NRF2 plus KEAP1) in assay [16] was determined as 1110 A-counts. Besides, the results for the % Disruption in Binding in [17], in assay [18] and in [20] were 25.1%, 28.3% and 29.3%, respectively. The same molecule gave a % Disruption in Binding (Reported Values) in [19] of 27.5%.

B3: NRF2 isoform 1 (I86V full-length), FLAG-tagged (protein)
chain: B1 chain with I86V
Turning to B3, the A-counts (NRF2 plus KEAP1) stood at 2120 A-counts in assay [21] and 1610 A-counts in assay [23]. Also, the Reported Value (reduction in binding) in [15] amounted to 3.2%. In [22], this molecule showed a Binding Percentage of 97.8%. The % Disruption in Binding in assay [17] amounted to 10.5%; in assay [18], 9.2%; in [20], 5.7%. The same molecule showed a % Disruption in Binding (Reported Values) in [19] of 8.4%.

B4: NRF2 isoform 1 (I28V full-length), FLAG-tagged (protein)
chain: B1 chain with I28V
On to B4, for which the values for the A-counts in assay [24], in assay [26] and in assay [27] were 1220 A-counts, 1690 A-counts and 1120 A-counts, respectively. In addition, the Standard Deviation (of binding percentage) in assay [25] was found to be 7.2%. In addition, the results for the % Disruption in Binding in assay [17], in [18] and in assay [20] were 21.5%, 22.6% and 16.7%, respectively. In [19], this molecule showed a % Disruption in Binding (Reported Values) of 20.3%.
